Measured values from the RNAGym collection of RNA variant scans (doi:10.1073/pnas.2313332121).
Variants at the floor of the assay were thinned out.

B1: TPR 5TU (parent)
chain: GGAUCUUCUCGAUCUAACAAAAAAGACAAAUCUGCCACAAAGCUUGAGAGCAUCUUCGGAUGCAGAGGCGGCAGCCUUCGGUGGCGCGAUAGCGCCAACGUUCUCAACUAUGACACGCAAAACGCGUGCUCCGUUGAAUGGAGUUUAUCAUG

Variants of: B1
Assay: polymerase ribozyme fitness, log enrichment relative to wild type (log ratio); higher = more active; in vitro selection for triplet polymerase activity
Summary of the method: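 Fitness is a logarithmic measure of how a genotype enriched relative to the wild type, with replicate averages weighted by inverse variance. The logarithm uses base 2, and enrichment came from Illumina sequencing of input and output libraries. Those libraries were PCR-built, transcribed mutants of each subunit of a heterodimeric triplet polymerase ribozyme, passed through one triplicate in vitro selection round that included frozen incubation at −7 °C, gel excision of extended constructs and streptavidin-bead capture. Genotypes were kept only if they had ≥10 input reads and ≥1 read per output.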

| Variant | polymerase ribozyme fitness (log ratio) |
| --- | --- |
| A29U G59C G88U C95G | ≤ -4.2 |
| A30G A47C G48A | ≤ -4.2 |
| A30U A91U | ≤ -4.2 |
| A30U U45A G50C C79G G83C G126C | ≤ -4.2 |
| A30G G92U A98U | -3.79 |
| A29U | -3.4 |
| A30C C75G C103G | ≤ -4.2 |
| A30G G48U G86U C149U | ≤ -4.2 |
| A30U C32G U55G G74A A89G C93A G133U A142C | ≤ -4.2 |
| U31A C57A C87U A97C G117A A119U | 1.02 |
| A30U A52C U90C C93U C95U C96U A106G | ≤ -4.2 |
| A29G C93A A122G G124A | ≤ -4.2 |
| A29U G133C | ≤ -4.2 |
| A30U U44G A52C C85G A107G G126C U134A A147G | ≤ -4.2 |
| U31A C38A G50C C85U | ≤ -4.2 |
| A29G G42A G81A C85U | -4.09 |
| A30U G83U G88A U109C C125U G133C | ≤ -4.2 |
| A29U G59A G83C C125U | ≤ -4.2 |
| A30U G86A | -3.95 |
| A30G C54A C85G A120U C125U G136A | ≤ -4.2 |
| A29U A30U A37U A47G G50C A97U G100U A106C | ≤ -4.2 |

| Variant | polymerase ribozyme fitness (log ratio) |
| --- | --- |
| A30G A47U A64G G94A | -3.57 |
| A29U U44A A49C C57U G88U | ≤ -4.2 |
| A30C A41C G67C G83U G88U G141A | ≤ -4.2 |
| A29U A66U C96U | ≤ -4.2 |
| A29G U31A C96U C114U G140C | ≤ -4.2 |
| A30U C57A A73G G81C G92U G141A U148A | ≤ -4.2 |
| A29U G86A A97G A142U G143A | ≤ -4.2 |
| A30U U45G C93U C103G C118G | ≤ -4.2 |
| A30U G58C C76A G94C U104G G136A | ≤ -4.2 |
| A29G C87A A110C G141U | ≤ -4.2 |
| A30G U33A U55A A91C C132U A142U | ≤ -4.2 |
| A30G A47U G50C G80C C96U C103U | ≤ -4.2 |
| A30G G71A C85G G141C | ≤ -4.2 |
| A29U U53A U56A A64U U77C A98G C103G U148C | ≤ -4.2 |
| A30G G46U G68U A147C | ≤ -4.2 |
| A29U G50U C116U A147U | -4.04 |
| A30G C87U A110U C131A G136U G141U | ≤ -4.2 |
| A29G U31A C43G | ≤ -4.2 |
| A29U G81U G92C C116G G140A U148C | ≤ -4.2 |
| A30U C76A | -3.82 |
| A29U G59C G62U C95U C116A | ≤ -4.2 |

| Variant | polymerase ribozyme fitness (log ratio) |
| --- | --- |
| A30C G84A A115C C149U | ≤ -4.2 |
| A30U C95G | -3.94 |
| A30U C95U | -3.31 |
| A29U U45A G70A C85G | ≤ -4.2 |
| U31A A52G G84U | -0.528 |
| A30U A66G A115U G143A | ≤ -4.2 |
| A30U C32G C54A C57G C99U A107G | ≤ -4.2 |
| A30G A150U | -2.97 |
| U31A A39G G67C C72G C96U A107U A113G A115C U148A | ≤ -4.2 |
| A30U A49G A52G G58C U78A A110U C123U A142C | ≤ -4.2 |
| A30U C87G C116A G141A | ≤ -4.2 |
| A30G C54G G68A C95G A121C | ≤ -4.2 |
| A29G G34A A49U G59U C76U C108A A119G | ≤ -4.2 |
| A30G C95U | -3.14 |
| A30G A40G U45G C79G A89C G94U U145A | ≤ -4.2 |
| U31A C76U C93G | -2.71 |
| A30C G59C A60C C93A C99U C114A | ≤ -4.2 |
| A30C G59A | ≤ -4.2 |
| A30U G62U U90G C95A A107C C118A A142G | ≤ -4.2 |
| U31A A47C U56A C87U | -0.397 |
| A30U A91U U104G | ≤ -4.2 |

| Variant | polymerase ribozyme fitness (log ratio) |
| --- | --- |
| A30G C43G G83A | ≤ -4.2 |
| A29U C96U A106C U127G | ≤ -4.2 |
| A29U A60G C76A | ≤ -4.2 |
| U31A A40U C85G A106G G140A C149A | ≤ -4.2 |
| A30C C93A A97G | ≤ -4.2 |
| A30U C43G A47G U53G C72A G140A | ≤ -4.2 |
| A29U C51A G94A | ≤ -4.2 |
| A30G G58U C118U | -3.95 |
| A29U A97U A115U G124C U134C U148A | ≤ -4.2 |
| A30U A52U U78A | ≤ -4.2 |
| A30C G67C G68A G88A C93A U135C G141C | ≤ -4.2 |
| A30U A41C G70C C93G | ≤ -4.2 |
| A30G C54U G80U A91C C103U | ≤ -4.2 |
| A29U A52C | ≤ -4.2 |
| A29U A137G | ≤ -4.2 |
| U31A A89C | -0.512 |
| A30G G50U C75A U78C G94C | ≤ -4.2 |
| A29G U55A C95U U101C U109A G133A | ≤ -4.2 |
| U31A A41U G83C U111G G136C | ≤ -4.2 |
| A29U A49C C63U C116U G133C U139A U146A | ≤ -4.2 |
